Patent publication US20180079819A1 (IMMUNOGEN, published 2018)

B1: lysine-linked huCD123-6-IGN conjugate with D1 (antibody, human IgG1, kappa)
heavy: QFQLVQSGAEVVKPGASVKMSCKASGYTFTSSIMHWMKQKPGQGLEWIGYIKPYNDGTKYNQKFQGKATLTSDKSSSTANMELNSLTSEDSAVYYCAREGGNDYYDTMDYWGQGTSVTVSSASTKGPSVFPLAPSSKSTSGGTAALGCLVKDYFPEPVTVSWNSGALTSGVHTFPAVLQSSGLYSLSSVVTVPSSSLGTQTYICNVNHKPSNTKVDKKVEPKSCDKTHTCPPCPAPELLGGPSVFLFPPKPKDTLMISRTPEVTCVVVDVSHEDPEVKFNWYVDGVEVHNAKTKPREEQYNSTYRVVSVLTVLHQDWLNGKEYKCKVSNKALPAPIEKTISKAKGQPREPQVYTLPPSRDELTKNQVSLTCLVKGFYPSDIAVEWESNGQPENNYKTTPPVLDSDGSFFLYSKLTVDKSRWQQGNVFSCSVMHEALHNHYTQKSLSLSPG
light: DIQMTQSPSSMSASVGERVTITCRASQDINSYLSWFQQKPGKSPKTLIYRVNRLVDGVPSRFSGSGSGQDYSLTISSLEPEDMGIYYCLQYDAFPYTFGQGTKLEIKRTVAAPSVFIFPPSDEQLKSGTASVVCLLNNFYPREAKVQWKVDNALQSGNSQESVTEQDSKDSTYSLSSTLTLSKADYEKHKVYACEVTHQGLSSPVTKSFNRGEC
modifications: D1 linked at Lys residues; sites not stated; D1 linked at Lys residues; sites and drug load not given
B2: huCD123-6Rv1.1-D2 (antibody, human IgG1, kappa)
heavy: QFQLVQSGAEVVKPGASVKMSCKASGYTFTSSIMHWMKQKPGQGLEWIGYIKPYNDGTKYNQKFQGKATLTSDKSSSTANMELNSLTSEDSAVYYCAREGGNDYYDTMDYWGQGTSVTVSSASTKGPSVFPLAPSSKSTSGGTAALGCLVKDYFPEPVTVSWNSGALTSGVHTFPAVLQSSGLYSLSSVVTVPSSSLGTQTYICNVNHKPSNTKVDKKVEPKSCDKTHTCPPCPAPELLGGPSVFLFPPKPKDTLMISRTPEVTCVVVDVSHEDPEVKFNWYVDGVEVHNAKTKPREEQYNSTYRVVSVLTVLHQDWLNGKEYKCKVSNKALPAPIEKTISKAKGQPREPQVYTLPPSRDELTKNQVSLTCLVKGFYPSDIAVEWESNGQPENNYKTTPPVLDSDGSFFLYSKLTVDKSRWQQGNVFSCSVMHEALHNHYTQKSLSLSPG
light: DIQMTQSPSSMSASVGERVTITCRASQDINSYLSWFQQKPGKSPKTLIYRVNRLVDGVPSRFSGSGSGQDYSLTISSLEPEDMGIYYCLQYDAFPYTFGQGTKLEIKRTVAAPSVFIFPPSDEQLKSGTASVVCLLNNFYPREAKVQWKVDNALQSGNSQESVTEQDSKDSTYSLSSTLTLSKADYEKHKVYACEVTHQGLSSPVTKSFNRGEC
modifications: D2 linked at Lys residues; sites not stated; D2 linked at Lys residues; sites and drug load not stated
B3: lysine-linked huCD123-6-IGN conjugate with D3 (antibody, human IgG1, kappa)
heavy: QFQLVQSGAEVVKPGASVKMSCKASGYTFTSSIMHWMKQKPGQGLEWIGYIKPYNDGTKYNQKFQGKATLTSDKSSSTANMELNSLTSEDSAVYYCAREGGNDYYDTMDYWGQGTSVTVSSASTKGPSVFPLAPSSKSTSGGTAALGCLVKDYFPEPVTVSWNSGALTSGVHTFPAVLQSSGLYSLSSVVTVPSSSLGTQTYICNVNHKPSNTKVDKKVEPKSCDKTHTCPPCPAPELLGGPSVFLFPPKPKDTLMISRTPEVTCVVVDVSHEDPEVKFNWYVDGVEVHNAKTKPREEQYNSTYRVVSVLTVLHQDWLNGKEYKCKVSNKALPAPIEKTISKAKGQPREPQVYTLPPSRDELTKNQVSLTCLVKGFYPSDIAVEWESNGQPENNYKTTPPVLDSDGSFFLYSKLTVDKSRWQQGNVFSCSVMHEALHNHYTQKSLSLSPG
light: DIQMTQSPSSMSASVGERVTITCRASQDINSYLSWFQQKPGKSPKTLIYRVNRLVDGVPSRFSGSGSGQDYSLTISSLEPEDMGIYYCLQYDAFPYTFGQGTKLEIKRTVAAPSVFIFPPSDEQLKSGTASVVCLLNNFYPREAKVQWKVDNALQSGNSQESVTEQDSKDSTYSLSSTLTLSKADYEKHKVYACEVTHQGLSSPVTKSFNRGEC
modifications: D3 linked at Lys residues; sites not stated; D3 linked at Lys residues; sites and drug load not given
B4: huCD123-6Gv4.6-CysMab-D5 (antibody)
heavy: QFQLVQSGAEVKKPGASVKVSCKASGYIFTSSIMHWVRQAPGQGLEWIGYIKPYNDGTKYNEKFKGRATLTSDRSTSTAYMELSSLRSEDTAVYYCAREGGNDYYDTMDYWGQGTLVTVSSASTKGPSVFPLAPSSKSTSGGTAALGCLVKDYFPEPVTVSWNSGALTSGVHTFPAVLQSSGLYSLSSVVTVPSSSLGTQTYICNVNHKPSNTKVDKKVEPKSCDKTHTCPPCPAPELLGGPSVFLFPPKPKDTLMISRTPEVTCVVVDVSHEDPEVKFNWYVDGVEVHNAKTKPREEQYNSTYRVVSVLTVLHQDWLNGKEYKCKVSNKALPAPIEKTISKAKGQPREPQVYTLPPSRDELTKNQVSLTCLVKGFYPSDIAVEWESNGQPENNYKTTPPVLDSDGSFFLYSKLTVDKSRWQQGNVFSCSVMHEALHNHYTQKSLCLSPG
light: DIQMTQSPSSLSASVGDRVTITCRASQDINSYLSWFQQKPGKAPKTLIYRVNRLVDGVPSRFSGSGSGNDYTLTISSLQPEDFATYYCLQYDAFPYTFGQGTKVEIKRTVAAPSVFIFPPSDEQLKSGTASVVCLLNNFYPREAKVQWKVDNALQSGNSQESVTEQDSKDSTYSLSSTLTLSKADYEKHKVYACEVTHQGLSSPVTKSFNRGEC
modifications: D5 linked through the engineered Cys in the heavy chain CH3 domain (5th to the last residue of SEQ ID NO: 54)
B5: huCD123-6Rv1.1-CX1-1-DM1 (antibody)
heavy: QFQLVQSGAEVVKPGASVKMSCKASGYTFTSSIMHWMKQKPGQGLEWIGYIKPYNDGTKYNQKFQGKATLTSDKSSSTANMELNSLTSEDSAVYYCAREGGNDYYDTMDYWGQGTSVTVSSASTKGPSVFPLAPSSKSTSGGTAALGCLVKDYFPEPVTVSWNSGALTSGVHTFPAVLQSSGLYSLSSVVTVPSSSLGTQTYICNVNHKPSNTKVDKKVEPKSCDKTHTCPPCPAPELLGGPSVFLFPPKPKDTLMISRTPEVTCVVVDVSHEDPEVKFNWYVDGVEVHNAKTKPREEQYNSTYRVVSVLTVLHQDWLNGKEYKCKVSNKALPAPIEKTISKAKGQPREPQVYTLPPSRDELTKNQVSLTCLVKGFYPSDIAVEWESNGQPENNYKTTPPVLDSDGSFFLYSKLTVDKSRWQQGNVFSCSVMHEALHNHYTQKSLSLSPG
light: DIQMTQSPSSMSASVGERVTITCRASQDINSYLSWFQQKPGKSPKTLIYRVNRLVDGVPSRFSGSGSGQDYSLTISSLEPEDMGIYYCLQYDAFPYTFGQGTKLEIKRTVAAPSVFIFPPSDEQLKSGTASVVCLLNNFYPREAKVQWKVDNALQSGNSQESVTEQDSKDSTYSLSSTLTLSKADYEKHKVYACEVTHQGLSSPVTKSFNRGEC
modifications: DM1 linked at Lys residues via the triglycyl CX1-1 linker; sites not stated; DM1 linked at Lys residues via the triglycyl CX1-1 linker; average of 4.3 or 6.7 maytansinoid per antibody, sites not stated
B6: huCD123-6Gv4.6-D2 (antibody, human IgG1, kappa)
heavy: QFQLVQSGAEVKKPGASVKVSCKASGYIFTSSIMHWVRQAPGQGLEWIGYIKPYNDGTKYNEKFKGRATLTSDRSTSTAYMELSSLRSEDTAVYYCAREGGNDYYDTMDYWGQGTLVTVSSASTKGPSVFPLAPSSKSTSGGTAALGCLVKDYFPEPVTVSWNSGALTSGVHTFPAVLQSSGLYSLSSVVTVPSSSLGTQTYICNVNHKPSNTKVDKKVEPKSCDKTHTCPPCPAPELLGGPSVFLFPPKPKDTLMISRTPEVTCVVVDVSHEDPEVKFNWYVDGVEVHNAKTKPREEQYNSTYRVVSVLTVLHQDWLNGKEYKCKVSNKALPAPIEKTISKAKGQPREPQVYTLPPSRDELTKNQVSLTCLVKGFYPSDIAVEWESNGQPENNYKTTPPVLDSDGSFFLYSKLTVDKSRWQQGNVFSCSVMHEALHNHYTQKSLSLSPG
light: DIQMTQSPSSLSASVGDRVTITCRASQDINSYLSWFQQKPGKAPKTLIYRVNRLVDGVPSRFSGSGSGNDYTLTISSLQPEDFATYYCLQYDAFPYTFGQGTKVEIKRTVAAPSVFIFPPSDEQLKSGTASVVCLLNNFYPREAKVQWKVDNALQSGNSQESVTEQDSKDSTYSLSSTLTLSKADYEKHKVYACEVTHQGLSSPVTKSFNRGEC
modifications: D2 linked at Lys residues; sites not stated; D2 linked at Lys residues; sites and drug load not stated
B7: huCD123-6Rv1.1S2-SeriMab-D8 (antibody, human IgG1, kappa)
heavy: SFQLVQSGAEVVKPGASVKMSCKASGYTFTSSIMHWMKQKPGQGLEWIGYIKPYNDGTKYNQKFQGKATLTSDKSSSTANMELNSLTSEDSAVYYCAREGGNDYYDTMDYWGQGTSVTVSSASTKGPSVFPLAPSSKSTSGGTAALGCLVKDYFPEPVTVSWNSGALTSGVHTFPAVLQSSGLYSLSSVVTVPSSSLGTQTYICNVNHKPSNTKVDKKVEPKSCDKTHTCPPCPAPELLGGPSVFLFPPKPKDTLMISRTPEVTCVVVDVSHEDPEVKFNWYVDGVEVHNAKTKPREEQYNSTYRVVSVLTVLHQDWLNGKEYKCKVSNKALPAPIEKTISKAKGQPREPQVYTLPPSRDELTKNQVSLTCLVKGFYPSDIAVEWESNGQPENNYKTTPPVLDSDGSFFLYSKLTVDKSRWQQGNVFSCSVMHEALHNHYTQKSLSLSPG
light: DIQMTQSPSSMSASVGERVTITCRASQDINSYLSWFQQKPGKSPKTLIYRVNRLVDGVPSRFSGSGSGQDYSLTISSLEPEDMGIYYCLQYDAFPYTFGQGTKLEIKRTVAAPSVFIFPPSDEQLKSGTASVVCLLNNFYPREAKVQWKVDNALQSGNSQESVTEQDSKDSTYSLSSTLTLSKADYEKHKVYACEVTHQGLSSPVTKSFNRGEC
modifications: D8 linked through the oxidized N-terminal Ser on the heavy chain

These binders were tested against T1, human CD123 (IL-3Rα, interleukin-3 receptor alpha chain) (human, UniProt P26951 19-378) (assay: cell-based or functional assay).
T1 sequence (P26951 19-378): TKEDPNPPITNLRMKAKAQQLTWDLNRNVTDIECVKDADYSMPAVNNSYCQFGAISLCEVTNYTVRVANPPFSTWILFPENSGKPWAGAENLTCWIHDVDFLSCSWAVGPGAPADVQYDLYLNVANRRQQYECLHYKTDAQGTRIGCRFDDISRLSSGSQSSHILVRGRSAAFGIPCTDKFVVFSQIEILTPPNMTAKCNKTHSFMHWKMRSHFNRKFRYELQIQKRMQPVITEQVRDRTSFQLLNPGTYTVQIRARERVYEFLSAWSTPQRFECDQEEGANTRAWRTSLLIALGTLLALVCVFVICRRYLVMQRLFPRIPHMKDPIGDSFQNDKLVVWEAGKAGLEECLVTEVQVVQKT
In the case of B1, the “IC50, in vitro cytotoxicity on EOL-1 cells (AML)” value (shortened to “IC50 … on EOL-1 cells (AML)”) is reported as 0.0047 nM, the “IC50, in vitro cytotoxicity on HNT-34 cells (AML)” value (shortened to “IC50 … on HNT-34 cells (AML)”) is reported as 0.0059 nM and the “IC50, in vitro cytotoxicity on JM-1 cells (B-ALL)” value (“IC50 … on JM-1 cells (B-ALL)” below) is reported as 0.41 nM. For the same binder, the “IC50, in vitro cytotoxicity on KASUMI-3 cells (AML)” value (from here on “IC50 … on KASUMI-3 cells (AML)”) was 0.14 nM, the “IC50, in vitro cytotoxicity on KCL-22 cells (CML)” value (“IC50 … on KCL-22 cells (CML)” for short) was 0.29 nM and the “IC50, in vitro cytotoxicity on KG-1 cells (AML)” value (shortened to “IC50 … on KG-1 cells (AML)”) was 4.1 nM. For the same binder, the “IC50, in vitro cytotoxicity on KO52 cells (AML)” value (from here on “IC50 … on KO52 cells (AML)”) was 0.41 nM, the “IC50, in vitro cytotoxicity on KOPN8 cells (B-ALL)” value (“IC50 … on KOPN8 cells (B-ALL)” for short) was 0.03 nM and the “IC50, in vitro cytotoxicity on MOLM-1 cells (CML)” value (“IC50 … on MOLM-1 cells (CML)” below) was 0.21 nM. For the same binder, the “IC50, in vitro cytotoxicity on MOLM-13 cells (AML)” value (from here on “IC50 … on MOLM-13 cells (AML)”) was 0.0012 nM, the “IC50, in vitro cytotoxicity on MV4-11 cells (AML)” value (“IC50 … on MV4-11 cells (AML)” below) was 0.0013 nM and the “IC50, in vitro cytotoxicity on OCI-AML2 cells (AML)” value (from here on “IC50 … on OCI-AML2 cells (AML)”) was 0.21 nM. The “IC50, in vitro cytotoxicity on SHI-1 cells (AML)” value (“IC50 … on SHI-1 cells (AML)” for short) was 0.032 nM and the “IC50, in vitro cytotoxicity on THP1 cells (AML)” value (from here on “IC50 … on THP1 cells (AML)”) was 0.058 nM.
With B2 the “IC50 … on EOL-1 cells (AML)” value was 0.0025 nM, the “IC50, in vitro cytotoxicity on Granta519 cells (NHL)” value was 0.0012 nM and the “IC50 … on HNT-34 cells (AML)” value was 0.002 nM. The “IC50 … on JM-1 cells (B-ALL)” value was 0.024 nM, the “IC50 … on KASUMI-3 cells (AML)” value was 0.0098 nM and the “IC50 … on KCL-22 cells (CML)” value was 0.03 nM. For the same binder, the “IC50 … on KG-1 cells (AML)” value was 0.22 nM, the “IC50 … on KO52 cells (AML)” value was 0.014 nM and the “IC50 … on KOPN8 cells (B-ALL)” value was 0.011 nM. The “IC50 … on MOLM-1 cells (CML)” value was 0.029 nM, the “IC50 … on MOLM-13 cells (AML)” value was 0.00049 nM and the “IC50 … on MV4-11 cells (AML)” value was 0.00056 nM. The “IC50 … on OCI-AML2 cells (AML)” value was 0.088 nM, the “IC50 … on SHI-1 cells (AML)” value was 0.013 nM and the “IC50 … on THP1 cells (AML)” value was 0.0067 nM.
B3 was tested, and the “IC50 … on EOL-1 cells (AML)” value was 0.0033 nM, the “IC50, in vitro cytotoxicity on Granta519 cells (NHL)” value was 0.0021 nM and the “IC50 … on HNT-34 cells (AML)” value was 0.0032 nM. For the same binder, the “IC50 … on JM-1 cells (B-ALL)” value was 0.17 nM, the “IC50 … on KASUMI-3 cells (AML)” value was 0.023 nM and the “IC50 … on KCL-22 cells (CML)” value was 0.95 nM. For the same binder, the “IC50 … on KG-1 cells (AML)” value was 6.6 nM, the “IC50 … on KO52 cells (AML)” value was 0.24 nM and the “IC50 … on KOPN8 cells (B-ALL)” value was 0.022 nM. For the same binder, the “IC50 … on MOLM-1 cells (CML)” value was 0.071 nM, the “IC50 … on MOLM-13 cells (AML)” value was 0.00046 nM and the “IC50 … on MV4-11 cells (AML)” value was 0.00054 nM. The “IC50 … on OCI-AML2 cells (AML)” value was 0.1 nM, the “IC50 … on SHI-1 cells (AML)” value was 0.029 nM and the “IC50 … on THP1 cells (AML)” value was 0.03 nM.

Target: T1, human CD123 (IL-3Rα, interleukin-3 …)
Test: cell-based or functional assay
Remark: another data set of the same source
With B4 the “IC50, in vitro cytotoxicity on EOL-1 cells” value was about 0.002 nM, the “IC50, in vitro cytotoxicity on KOPN-8 cells” value was about 0.005 nM and the “IC50, in vitro cytotoxicity on MOLM-1 cells” value was about 0.02 nM. For the same binder, the “fold loss of cytotoxicity when CD123 is blocked by the unconjugated chCD123-6 antibody” value was at least 100 fold.
With B5 the “IC50, in vitro cytotoxicity on OCI-AML4 cells” value was 0.07 nM.
For B2, the “IC50, in vitro cytotoxicity on HNT-34 cells” value was about 0.002 nM, the “IC50, in vitro cytotoxicity on MOLM-1 cells” value was about 0.03 nM and the “IC50, in vitro cytotoxicity on SHI-1 cells” value was about 0.01 nM. For the same binder, the “fold loss of cytotoxicity when CD123 is blocked by the unconjugated huCD123-6 antibody” value was at least 100 fold.
B6 was tested, and the “IC50, in vitro cytotoxicity on EOL-1 cells” value was about 0.002 nM, the “IC50, in vitro cytotoxicity on KOPN-8 cells” value was about 0.005 nM and the “IC50, in vitro cytotoxicity on MOLM-1 cells” value was about 0.02 nM. The “fold loss of cytotoxicity when CD123 is blocked by the unconjugated chCD123-6 antibody” value was at least 100 fold.
In the case of B7, the “IC50, in vitro cytotoxicity on HNT-34 cells” value is reported as about 0.002 nM, the “IC50, in vitro cytotoxicity on MOLM-1 cells” value is reported as about 0.03 nM and the “IC50, in vitro cytotoxicity on SHI-1 cells” value is reported as about 0.01 nM. The “fold loss of cytotoxicity when CD123 is blocked by the unconjugated huCD123-6 antibody” value was at least 100 fold.
